Measured values reported in patent publication US20230094463.

Target: Human Galectin-3 protein (Acro Biosystems, GA3-H5129)
Assay: blocking ELISA (Gal3 coated; antibody 3 µg/mL + INSR)

B1: 15G7.2A7 (protein)
chain 1: EVQLQQSGPELVKPGASVKISCKASGYTFTDYYMNWVKQSHGKSLEWIGDINPNNGGTNYNQKFKGKATLTVDKSSSTAYMELRSLTSEDSAVYYCTSGYGFPYWGQGTLVTVSA
chain 2: DIQMNQSPSSLSASLGDTISITCRASQNINIWLSWYQQKPGNIPQLLIYKASNLHTGVPSRFSGSGSGTDFTLTISSLQPEDIATYYCLQGQSYPLTFGAGTKLVMK
reduction of Gal3-INSR assembly (%): reduced assembly of Gal3 and INSR by greater than 99% at 3 µg/mL
